Results from paper PMC8659110, “Preliminary Study of New Gallium-68 Radiolabeled Peptide Targeting NRP-1 to Detect Brain Metastases by Positron Emission Tomography” (Molecules, 2021).
Primed or numbered codes have the meaning given here. Where no end group is shown, it is not given here. Cy5 = Cy5 fluorophore (fluorescent dye); NODAGA′ = chelator

T1: recombinant rat NRP-1 protein (rat, UniProt Q9QWJ9 22-855)
T1 construct: neuropilin-1 (NRP-1), rat, recombinant; printed MW 119 kDa; also called neuropilin-1; source: bought: Bio-techne
T1 sequence (looked up): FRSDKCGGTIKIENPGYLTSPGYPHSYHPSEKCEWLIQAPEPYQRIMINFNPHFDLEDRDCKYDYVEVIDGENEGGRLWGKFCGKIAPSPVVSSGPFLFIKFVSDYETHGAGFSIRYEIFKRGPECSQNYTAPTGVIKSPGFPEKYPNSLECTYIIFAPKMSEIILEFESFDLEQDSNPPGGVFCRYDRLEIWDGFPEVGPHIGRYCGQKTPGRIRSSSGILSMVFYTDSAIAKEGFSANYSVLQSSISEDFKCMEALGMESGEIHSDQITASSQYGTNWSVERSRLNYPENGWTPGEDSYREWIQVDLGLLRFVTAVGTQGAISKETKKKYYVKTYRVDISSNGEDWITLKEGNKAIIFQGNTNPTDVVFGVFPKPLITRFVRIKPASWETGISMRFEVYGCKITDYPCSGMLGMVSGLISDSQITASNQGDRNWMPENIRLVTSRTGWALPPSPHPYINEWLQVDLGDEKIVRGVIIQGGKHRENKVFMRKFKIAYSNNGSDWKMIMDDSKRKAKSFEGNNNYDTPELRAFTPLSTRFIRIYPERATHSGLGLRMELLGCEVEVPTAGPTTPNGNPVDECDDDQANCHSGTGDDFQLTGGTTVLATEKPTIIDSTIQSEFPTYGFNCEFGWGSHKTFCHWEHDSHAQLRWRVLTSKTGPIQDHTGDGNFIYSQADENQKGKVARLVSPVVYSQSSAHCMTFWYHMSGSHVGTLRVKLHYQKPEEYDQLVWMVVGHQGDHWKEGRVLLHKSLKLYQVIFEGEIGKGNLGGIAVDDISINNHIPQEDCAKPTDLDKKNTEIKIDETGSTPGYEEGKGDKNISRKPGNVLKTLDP

T2: NRP-1 recombinant chimeric protein ( (recombinant human/rat NRP-1 …, UniProt O14786 22-856))
T2 construct: 'Chimeric' probably means the supplier's Fc chimera; also called recombinant NRP-1 protein; the receptor; source: bought: Bio-techne
T2 sequence (looked up): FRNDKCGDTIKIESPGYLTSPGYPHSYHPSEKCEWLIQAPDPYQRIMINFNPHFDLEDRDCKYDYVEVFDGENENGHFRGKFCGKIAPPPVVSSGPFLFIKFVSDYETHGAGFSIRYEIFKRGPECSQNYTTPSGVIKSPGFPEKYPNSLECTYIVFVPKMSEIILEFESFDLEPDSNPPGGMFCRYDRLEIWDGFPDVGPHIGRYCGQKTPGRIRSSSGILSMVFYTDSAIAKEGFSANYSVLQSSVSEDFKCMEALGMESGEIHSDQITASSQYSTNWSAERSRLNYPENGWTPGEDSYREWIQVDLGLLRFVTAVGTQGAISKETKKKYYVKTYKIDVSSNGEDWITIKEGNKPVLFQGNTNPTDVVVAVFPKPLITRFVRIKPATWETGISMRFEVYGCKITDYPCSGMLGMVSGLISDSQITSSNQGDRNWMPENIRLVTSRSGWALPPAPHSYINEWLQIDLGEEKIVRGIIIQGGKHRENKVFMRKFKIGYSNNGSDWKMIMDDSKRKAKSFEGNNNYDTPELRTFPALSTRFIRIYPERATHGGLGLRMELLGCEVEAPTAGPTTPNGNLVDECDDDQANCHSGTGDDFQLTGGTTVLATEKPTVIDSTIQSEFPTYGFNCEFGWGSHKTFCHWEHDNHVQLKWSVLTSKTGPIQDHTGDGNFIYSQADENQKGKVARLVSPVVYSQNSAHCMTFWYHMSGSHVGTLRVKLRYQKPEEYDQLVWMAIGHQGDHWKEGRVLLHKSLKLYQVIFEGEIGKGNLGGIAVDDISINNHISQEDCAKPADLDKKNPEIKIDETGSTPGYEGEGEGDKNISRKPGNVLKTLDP


What was measured:
[1] = target: T1, recombinant rat NRP-1 protein; test: SPR; Biacore T200, 25 °C; rat NRP-1 covalently immobilised on CM5 chip (10,000 RU), IgG1 reference surface (4000 RU); PBS with 0.05% P20, pH 7.4; compounds 0.60-10 µM (scrambled peptides 10 and 30 µM, VEGF 12.5-400 nM) at 30 µL/min for 300 s; equilibrium response fitted to a 1:1 model; mean of two experiments; conditions: both partners purified
[2] = target: T2, NRP-1 recombinant chimeric protein; test: ELISA; competitive binding assay: NRP-1 recombinant chimeric protein coated on Maxisorp microplates; biotinylated VEGF-165 with heparin, with or without increasing concentrations of compounds; 2 h at room temperature; bound b-VEGF-165 detected with streptavidin-HRP, OD 450 nm; IC50 by one-site fit log-IC50; conditions: both partners purified

Row | Binder | Kd [1] | IC50 [2]
1 | KDKPPR (also called KDKPPR free peptide; KDKPPR alone; source: synthetic peptide (Fmoc/tBu solid phase on Fmoc-Arg(Pbf)-Wang resin, precipitated in cold diethyl ether)) [KDKPPR peptide] | 7 µM | –
2 | {NODAGA′}-K(Cy5)DKPPR (also: NODAGA complexed with natGa, KDKPPR with ^natGa-NODAGA on the N-terminal amine and Cy5 on the side chain of the first lysine; source: synthetic peptide (Fmoc/tBu/Dde solid phase; complexed with ^natGa(NO3)3, purified by preparative HPLC)) [^natGa-NODAGA-K(Cy5)DKPPR] | 4 µM | –
3 | K(Cy5)DKPPR (KDKPPR with Cy5 on the side chain of the first lysine; source: synthetic peptide (solid phase with Fmoc-Lys(Cy5)-OH, purified by preparative HPLC)) [K(Cy5)DKPPR] | 5 µM | –
4 | H-KRPKPD-OH [KRPKPD scramble peptide] | – | 300 µM
5 | {NODAGA′}-K(Cy5)RPKPD (also: NODAGA complexed with natGa, scramble peptide KRPKPD with ^natGa-NODAGA on the N-terminal amine and Cy5 on the side chain of the first lysine; also called ^natGa-NODAGA-K(Cy5)scramble; source: synthetic peptide (Fmoc/tBu/Dde solid phase; complexed with ^natGa, purified by preparative HPLC)) [^natGa-NODAGA-K(Cy5)RPKPD] | – | 177 µM
